Measured values as given in the DeepSol protein solubility set.

Test: soluble on expression in E. coli; label from the status in PepcDB or PDB records

Sequence | soluble on expression in E. coli
MAHHHHHHMNVLTSHTHLHMRRSCCMATARGCLGNIRTSDVSTRRCKGDYGFNIFHNSNPQHGASYARHERRMREDEVEDFLKSVKGWVPVDECFPCVDADADAEGADARKEEKEEMGPAPLTIFTGEGALKRDFDFANFRDAYLFMGRLWAFCYGSDKYPNVTWEGTRITVYIYSPSFRGLSKREARLAAFLNDQYNMFKKSKRQQKVIIDGVVKRSVIEDMMGECVAEALKRREEERQKPLAETVEGIATSWEAVLSKDGNNNNNDGTPSSCTSP | not soluble
MSLGMRDVAKEAGVSLSTVSLVVNKTGYVSDDMRARVEAAMKELNYVPNELARNLYKNRTNLVGVIVPTIRHPFFATLTAHLQRELAAQGLRTMLCSTADAENGEVEYVDMLRRHMMDGIIVCSHTTHPNDYWTSIHRPIVAFDRVLGGGIASIGSDHEQGGRLMAHMLVNTGAHHVVMIGGPRDQFFDLAARNGDSPDDFDLHKTTFPTVRYYLALEQELKAAGVRYEYVEAGNVEDFQGYKNAVNAVLNSMPVDGVDAVVSSDIGAALCVREAMRRHISIPRDLQIIAYDGTYLTDLAGMKMTAVAQNFDKIAQVAVGNIVRAIAKEGDAKADTTSATGRKPYEPDVLIPVTLKLGDTTREGHHHHHH | soluble
MGSDKIHHHHHHMLLHFVPINVFRETPQVSFFDAGVNGSNGADVVIHHKNAISPPDDGNFEQYYIHNHQVDHNLVIEGSRKFTLINPKWDEPHHVIFLNRAMGALQIPIGTYHRSESGKEGSIVLNQATRDDMFDQRKEFSPVSLRSNKQLRKARQAHPVYWIWEEERIKRVKLDCKGYSKNIKLEPLKTAH | not soluble
MGSDKIHHHHHHMRKLYILGMILGMYATFSACNDEWKDELYTQMLSFKAPLGDNGLSEIYVRYQPDGTGIYQLPVIVSGSKSNSRNIDAKIAVDEDTLRILNQEKFPVGRQDLWYVPLAEQHYSFESNICHIPAGENIQLYPIHFNFNGLELDEKYVLPLTIEEDPSYVQNKYKGRYKALLGVNLFNDYSGTYNTTLMNIYIEGTTTDPAKVDTRLARVVDENTIFFYAGSTWVEDENRSRYKVFVEFEEGTEDEEGTIKGKLRLYGDEGEPGINIRPLGECKYEKRIIQHETIKYMERHLTTLELSYKYTDVTSNPDYPITYEVKGSMTMERQINPLIPDEDQAIEW | not soluble
MGSDKIHHHHHHMNQQPEQITALYCRLSRDDELQGDSNSIVNQKSILSKYAEEHRLLNTRFFIDDGVSGTTFDRPGLNEMLALIDEEKVSTVIVKDMSRLGRDYLKVGLLTEIQLPEKGVRFIAINDGVDSNQGVSEFIAFRNVINEWYAKDTSKKIKAVFTAKGQSGKPLSTFPPYGYIKDPEDKNRWIVDEAAAEVVREIFRLCMEGNGPTKIARILSERRVLIPSAYAKSNGRSAPADVPADRCKWCDSTVAHILERKEYLGHTVNFKTYKESFRNKKQRKNPKENQMVFENTHQPIIEQDVWDTVQQLR | not soluble
GAMDPREVILCKDQDGKIGLRLKSIDNGIFVQLVQANSPASLVGLRFGDQVLQINGENCAGWSSDKAHKVLKQAFGEKITMTIRDRPFERTITMHKDSTGHVGFIFKNGKITSIVKDSSAARNGLLTEHNICEINGQNVIGLKDSQIADILSTSGTVVTITIMPAF | soluble
MSLKRKIETFLAKWKKSEDRKPLVIKGIRQCGKTYIVQKFAKENYESVVYMNFILEPDKKSAFTGNIDVDTIILNLSALIQGSRFINGKTCIILDEIQECKEARTALKSFHIDGRFDVIATGSLLGVKGYDKSKKKKEEEEGQDSVPVGYETVIDMYPLDFEEFLWANGISDMVIDSVKSCFENESTVPDGIHKAMMELLYRYVIVGGLPEVVNCFLETKNIELIYKVQRNLIAEYEEDMVKYADDPDKPRIRECFESIPKQLAKENKKFQYSVVKKGGRASQYIGSIQWLEDAGIVRRCYNTQITELPLEGNSIKGSFKVYTTDIGILMAMLDYGTQADILKGNLLGYKGAIFENLMADFLCKSGQKLYYFHKDSGLELDFLVRFKGECVILEVKAKTGKAKSMTTVLKNKDVYYVNNAIKLGQYNVGCEGDILTIPLYMGFLVEDKLADVIIPDVDVSLLTTIEGHHHHHH | soluble
MKPIQVEREIFRYEQGAIKHIEDSIVTEFPVTIKMNGQEFVTMVSTPEYIEDMVIGFLASEGIIRKYEDIDSVWVQEKEGFVHVTTTKVNPYYEQMQNKRYITSCCGMSRQGFVFANDALSAKKMKGVHVQVAADDCFRLMKEMQQSADTFHRTGGVHNAALCDVNGIILSRMDIGRHNALDKIYGYCLRNDISIKDKIIVFSGRISSEILLKVAKIGCEIILSKSAPTELALQLAEDLGITTIGFIRNHSLNVYTHPERVLNIKLEHHHHHH | soluble
SLTKKVTIGSYIKFSDSCKRDGLANYSEQGRFWDVHRSQADDVQKIYNQELEFQRLAQRIGNCSGILRFSQIDDDETGKKKLKLRLQEAHFCRVRHCPVCQWRRSLMWQARFYSALPAIIKEYPKARFLFLTLTVKNCHIEDLSDTLRIMNSGWQRLKDRKEFKSVLGWIRSTEVTKGKDGSAHPHFHILLMVPPSWFTHSYVKKSRWAELWAYCARLDYSPVVDIRTVKNCVPEASSGLTEGLKAAVAETLKYSVKPSDMIEGNNWFLQMTKQVHRKRFIASGGVLKNILRESQETNEDLIFADNLNEISDRSRIAFNWRQSEKCYRRFEQGD | soluble
MYFVDRSKIEKTLGFFEHQLALFDSQTDWQSEIGELALQRIGHLLIECILDTGNDMIDGFIMRDPGSYDDIMDILVDEKVVTEKEGDELKKLIAYRKTLVQQYLLADSGELYRLIKAHQTALQDFPKRIRSYLETELGPVSAFKLEHHHHHH | soluble
MSLDHTYVFAVGGLDEVGKNSYAIEHNEETIMVDYGIKFASSDLLGINGIVANTSYFVENNRPIDALLLTHGHEDHIGGIPYLLQTTEVKKIYAPLLATELIKRRLSEFRDIKYNPEIIPFGDDSKVSTKYFEVDFFRVCHSIPDSFGMCIKTPNGRIVSAGDYRYDFGKDTDDTNIHKLVEMSNRGIDIFLSESTNSDQPGFSPSEDNIINNIETLIKNSKGRVFVATFASNLGRIEKIIERAIKSGRRVCIMGRSMEANIKTSKKLGYLKISESDFLTTKELNECKDREILVVLTGSQGEEMAALNQMALGKHPRLSLKPSDSIIMSSNPIPGNFKSVELLINRLYKQGVNMYTNSPNFRIHSSGHATIQELQMMFKILKPKYLIPIHGESKMLSAMKRNANSIGINPENVFVLTNGLKVELKDHNLKLTNQRIDACPIYIDKKVASKSTTDLINKRKLLSEEGIFNIIVLIDHKNKKVVKNPMLSTRGCFYAKDSSSLITKISFSVKDEIESLLNKEAEASKEKIKQAVANVVKFYVWKNKKKNPIVTTTVFDIEGHHHHHH | not soluble
AESHWCYEVQAESSNYPCLVPVKWGGNCQKDRQSPINIVTTKAKVDKKLGRFFFSGYDKKQTWTVQNNGHSVMMLLENKASISGGGLPAPYQAKQLHLHWSDLPYKGSEHSLDGEHFAMEMHIVHEKEKGTSRNVKEAQDPEDEIAVLAFLVEAGTQVNEGFQPLVEALSNIPKPEMSTTMAESSLLDLLPKEEKLRHYFRYLGSLTTPTCDEKVVWTVFREPIQLHREQILAFSQKLYYDKEQTVSMKDNVRPLQQLGQRTVIKS | soluble
MGHHHHHHSHALKRLEVEVELFNQPSEELENFDFIVSVGGDGTILRILQKLKRCPPIFGINTGRVGLLTHASPENFEVELKKAVEKFEVERFPRVSCSAMPDVLALNEIAVLSRKPAKMIDVALRVDGVEVDRIRCDGFIVATQIGSTGYAFSAGGPVVEPYLECFILIPIAPFRFGWKPYVVSMERKIEVIAEKAIVVADGQKSVDFDGEITIEKSEFPAVFFKNEKRFRNL | not soluble
MKNKSLLLAVAISATLLAGCKNGVNGNLIASSGMSTYKAATLSDADVKALSNNACKQMDSENQLAGSKSKYTKRLSKIAKALGNNIDGTPVSYKVYMTSDINAWAMANGCVRVYSGLMDLMTDNEIEGVLGHELGHVSLGHSRKAMQTAYATLAARDAISATSGVAAQLSQSQLGDLAEGVINSAFSRSQESDADDFSYDLLKKRGINTQGLVTAFDKFATMDAGHAKSLMDSHPASADRAQHMRDRIAEDKKLEHHHHHH | not soluble
